Data from PMC11180338 (The Journal of Biological Chemistry, 2024).
Read-outs that look alike come from different tables or passages of the source.

Key:
[1] = target: nucleocapsid protein (N) 175-245 (UniProt P0DTC9); settings: sites S188
[2] = target: nucleocapsid protein (N) 175-245 (UniProt P0DTC9); settings: sites S188; remark: listed apart in the source
[3] = target: nucleocapsid protein (N) 175-365 (UniProt P0DTC9); settings: sites S188
[4] = target: the molecule itself; experiment: AUC

**Q.** Which “binding against the reference” value [1] does the source give for “nucleocapsid protein (N) 175-245 (from UniProt P0DTC9)” here?
**A.** weaker

**Q.** And the “binding against the reference” value [2]?
**A.** weaker

**Q.** “nucleocapsid protein (N) 175-365 (from UniProt P0DTC9)” was tested. Which “binding against the reference” value [3] did it give?
**A.** same

B1: WT-N_(175–245) GFP, GFP-tagged N_(175–245) (domain or fragment)
chain: GSRGGSQASSRSSSRSRNSSRNSTPGSSRGTSPARMAGNGGDAALALLLLDRLNQLESKMSGKGQQQQGQT
**Q.** What does the source list for B1?
**A.** Kd [4]: 77 µM; stoichiometry N [4]: 2

B2: pSer188-N_(175–245) GFP (domain or fragment)
chain: GSRGGSQASSRSSSRSRNSSRNSTPGSSRGTSPARMAGNGGDAALALLLLDRLNQLESKMSGKGQQQQGQT
modifications: phosphoserine at 188
**Q.** How did the Kd [4] turn out when B2 was run?
**A.** 235 µM
